Reference: PMC5855017, “Label-Free Aptasensor for Lysozyme Detection Using Electrochemical Impedance Spectroscopy”

Biological target: Lysozyme (UniProt P00698 19-147)
Assay: electrochemical impedance spectroscopy (label-free aptasensor); PEG-blocked electrode; 0.25-5 uM lysozyme; LOD 1.67 uM, slope 0.090 uM-1 (not Kd); Room temperature incubation; buffers listed: PBS (187 mM NaCl, 2.7 mM KCl, 8.1 mM Na2HPO4, 1.76 mM KH2PO4, pH 7.0) and BB (1 mM MgCl2, 2.7 mM KCl, 140 mM NaCl)
Conditions: protein: commercial

Chain of Lysozyme (P00698 19-147): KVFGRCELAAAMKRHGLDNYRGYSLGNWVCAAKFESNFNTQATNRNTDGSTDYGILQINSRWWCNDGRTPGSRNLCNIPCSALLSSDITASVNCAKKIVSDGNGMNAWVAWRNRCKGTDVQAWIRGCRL

Does ATCTACGAATTCATCAGGGCTAAAGAGTGCAGAGTTACTTAG (ssDNA, 5' aminolink C6, immobilized via amide bond on graphite-epoxy electrode) [AptLys (lysozyme aptamer)] bind?
Result: binds
